Target: mouse ChemR23, PathHunter β-Arrestin cell line (mouse) (UniProt P97468)
Test: cell-based or functional assay

Chain of mouse ChemR23, PathHunter β-Arrestin cell line (mouse) (P97468 whole entry): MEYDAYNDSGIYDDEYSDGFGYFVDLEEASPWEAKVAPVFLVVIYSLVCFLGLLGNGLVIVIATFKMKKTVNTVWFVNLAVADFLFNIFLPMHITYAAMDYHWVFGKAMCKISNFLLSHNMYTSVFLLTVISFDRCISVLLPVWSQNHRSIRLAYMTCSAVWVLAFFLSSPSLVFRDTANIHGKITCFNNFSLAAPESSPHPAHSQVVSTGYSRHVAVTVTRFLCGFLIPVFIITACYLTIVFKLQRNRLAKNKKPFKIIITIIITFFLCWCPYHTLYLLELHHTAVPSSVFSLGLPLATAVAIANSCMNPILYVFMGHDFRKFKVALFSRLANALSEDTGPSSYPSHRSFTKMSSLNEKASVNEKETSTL

- EC50, Arrestin, Agonist (RC50, uM): 0.00154 µM
Substance: hrChemerin (from UniProt Q99969 21-157) (ligand)
